Measurements taken from patent publication US12559545 (VANDERBILT UNIVERSITY, dated 2026).

B1: HENV-32 (antibody, V domains shown)
VH: QVQLVQSGAEVKKPGSSVKVSCKVSGGIFNRETINWVRQAPGQGLEWMGRITPIVDVPNYPRKFRGRVTITADKSTSTVYMELSGLRFEDTAIYFCARFRGHNYFDPWGQGTLVTVSS
VL: SYVLTQPPSVSVAPGQTARITCGGNNIGGKSVHWYQQKPGQAPVLVVYDDRDRPSGIPERFSGSNSGDTASLTISRVDAGDEADYFCQVWDNASDEAVFGGGTKLTVL
B2: HENV-32 Fab (Fab, V domains shown)
VH: QVQLVQSGAEVKKPGSSVKVSCKVSGGIFNRETINWVRQAPGQGLEWMGRITPIVDVPNYPRKFRGRVTITADKSTSTVYMELSGLRFEDTAIYFCARFRGHNYFDPWGQGTLVTVSS
VL: SYVLTQPPSVSVAPGQTARITCGGNNIGGKSVHWYQQKPGQAPVLVVYDDRDRPSGIPERFSGSNSGDTASLTISRVDAGDEADYFCQVWDNASDEAVFGGGTKLTVL

Experiments:
[1] = target: T1, HeV RBP on live Hendra virus (Hendra virus, UniProt O89343 182-603); experiment: cell-based or functional assay
T1 sequence: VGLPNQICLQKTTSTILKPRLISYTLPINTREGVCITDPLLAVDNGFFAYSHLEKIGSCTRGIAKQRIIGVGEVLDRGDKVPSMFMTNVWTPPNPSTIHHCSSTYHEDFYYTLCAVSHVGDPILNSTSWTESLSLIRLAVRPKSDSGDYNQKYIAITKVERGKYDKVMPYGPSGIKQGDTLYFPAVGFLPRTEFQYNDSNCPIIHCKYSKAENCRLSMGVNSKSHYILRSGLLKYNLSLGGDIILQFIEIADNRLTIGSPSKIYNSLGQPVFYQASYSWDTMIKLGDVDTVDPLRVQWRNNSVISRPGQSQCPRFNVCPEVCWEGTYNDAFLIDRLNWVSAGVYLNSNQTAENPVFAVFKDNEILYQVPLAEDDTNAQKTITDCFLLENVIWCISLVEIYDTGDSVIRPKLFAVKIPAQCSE

[2] = target: NiVB RBP on live Nipah virus Bangladesh (Nipah virus, strain Bangladesh, UniProt Q9IH62 182-602); experiment: cell-based or functional assay
[3] = target: T2, NiVB-RBP head domain (residues 185-602), recombinant soluble (Nipah virus, strain Bangladesh, UniProt Q9IH62 185-602); experiment: ELISA, RBP head domain coated on plate, hybridoma IgG
[4] = target: T3, NiVM-RBP head domain (residues 183-602), recombinant soluble (Nipah virus, strain Malaysia, UniProt Q9IH62 183-602); experiment: as above
T3 sequence: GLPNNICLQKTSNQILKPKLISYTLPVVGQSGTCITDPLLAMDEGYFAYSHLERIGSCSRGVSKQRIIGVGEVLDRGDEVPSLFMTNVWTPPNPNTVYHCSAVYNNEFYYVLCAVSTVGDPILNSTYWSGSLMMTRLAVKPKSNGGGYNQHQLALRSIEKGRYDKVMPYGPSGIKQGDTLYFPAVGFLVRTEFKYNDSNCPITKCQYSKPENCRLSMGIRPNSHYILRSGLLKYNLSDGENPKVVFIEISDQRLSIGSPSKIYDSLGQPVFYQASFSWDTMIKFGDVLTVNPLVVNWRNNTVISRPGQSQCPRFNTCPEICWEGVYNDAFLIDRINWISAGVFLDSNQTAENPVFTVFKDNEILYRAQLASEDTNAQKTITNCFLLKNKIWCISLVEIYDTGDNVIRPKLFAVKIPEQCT

[5] = target: T4, HeV-RBP head domain (residues 185-604), recombinant soluble (Hendra virus, UniProt O89343 185-603); experiment: as above
T4 sequence: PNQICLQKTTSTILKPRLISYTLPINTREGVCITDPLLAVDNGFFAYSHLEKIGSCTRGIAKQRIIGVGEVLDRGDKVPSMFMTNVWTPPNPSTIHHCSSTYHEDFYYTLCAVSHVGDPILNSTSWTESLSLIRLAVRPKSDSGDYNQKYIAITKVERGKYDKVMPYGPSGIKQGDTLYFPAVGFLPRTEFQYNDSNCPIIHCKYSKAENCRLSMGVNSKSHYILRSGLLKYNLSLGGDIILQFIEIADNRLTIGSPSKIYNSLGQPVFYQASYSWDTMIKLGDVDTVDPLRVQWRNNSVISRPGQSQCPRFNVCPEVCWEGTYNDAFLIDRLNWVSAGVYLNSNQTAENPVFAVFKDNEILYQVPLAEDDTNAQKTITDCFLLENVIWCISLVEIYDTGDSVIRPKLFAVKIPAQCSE

[6] = target: full-length NiVB-RBP expressed on the surface of transfected cells (Nipah virus, strain Bangladesh, UniProt Q9IH62 182-602)
[7] = target: T5, full-length NiVM-RBP expressed on the surface of transfected cells (Nipah virus, strain Malaysia, UniProt Q9IH62 182-602)
T5 sequence: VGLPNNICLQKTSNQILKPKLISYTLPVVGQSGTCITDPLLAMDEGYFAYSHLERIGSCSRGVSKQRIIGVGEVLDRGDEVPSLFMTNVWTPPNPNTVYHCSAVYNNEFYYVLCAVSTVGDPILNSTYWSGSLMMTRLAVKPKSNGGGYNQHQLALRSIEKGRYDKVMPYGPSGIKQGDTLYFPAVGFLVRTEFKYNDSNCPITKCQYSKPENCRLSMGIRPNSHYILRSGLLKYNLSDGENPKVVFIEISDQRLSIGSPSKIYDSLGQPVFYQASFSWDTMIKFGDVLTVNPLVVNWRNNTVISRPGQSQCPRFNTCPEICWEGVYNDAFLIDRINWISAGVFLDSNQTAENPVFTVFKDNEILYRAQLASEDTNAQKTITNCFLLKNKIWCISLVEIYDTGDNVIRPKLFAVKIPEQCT

[8] = target: T6, full-length HeV-RBP expressed on the surface of transfected cells (Hendra virus, UniProt O89343 182-603)
T6 sequence: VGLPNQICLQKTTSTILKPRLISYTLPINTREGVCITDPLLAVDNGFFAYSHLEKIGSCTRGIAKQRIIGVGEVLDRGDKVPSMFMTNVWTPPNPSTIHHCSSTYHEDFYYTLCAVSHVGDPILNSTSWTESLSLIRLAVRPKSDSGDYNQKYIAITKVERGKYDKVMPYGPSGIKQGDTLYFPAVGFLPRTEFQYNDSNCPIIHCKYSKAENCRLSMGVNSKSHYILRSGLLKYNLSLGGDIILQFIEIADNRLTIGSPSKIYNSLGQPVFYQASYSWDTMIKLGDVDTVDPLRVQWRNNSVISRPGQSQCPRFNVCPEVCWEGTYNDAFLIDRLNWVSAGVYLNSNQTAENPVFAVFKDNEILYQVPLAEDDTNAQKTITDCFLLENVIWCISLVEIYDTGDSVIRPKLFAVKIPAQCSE

[9] = target: T2, NiVB-RBP head domain (residues …)
[10] = target: T3, NiVM-RBP head domain (residues …)
[11] = target: T4, HeV-RBP head domain (residues 185-604), …

Row | Binder | IC50, plaque reduction neutralization of live virus [1] | IC50, plaque reduction neutralization of live virus [2] | Area under the curve [3] | EC50 [3] | Area under the curve [4] | EC50 [4] | Area under the curve [5] | EC50 [5] | EC50 [6] | EC50 [7] | EC50 [8] | Kd [9] | Kd [10] | Kd [11]
1 | B1 | 0.27 µg/mL | 0.38 µg/mL | 6.6 | 0.96 µg/mL | 8 | 0.42 µg/mL | 3.71 | 0.36 µg/mL | 0.836 µg/mL | 0.76 µg/mL | 0.68 µg/mL | – | – | –
2 | B2 | – | – | – | – | – | – | – | – | – | – | – | 2.8 nM | 2.2 nM | 2.1 nM
